By stoichiometry N is commonly meant the number of molecules, sites or subunits per partner or assembly.

The data set concerns the molecule itself. The data set can be described thus: SEC; Superdex 200 10/300 GL, 30 mM Tris pH 7.0, 50 mM sodium chloride; oligomeric state judged from the elution profile. On the technique in general: Size exclusion chromatography separates by hydrodynamic size, large species first.

B1: E. coli agmatine ureohydrolase (agmatinase, SPEB) (enzyme, UniProt P60651 1-306, looked up)
chain: MSTLGHQYDNSLVSNAFGFLRLPMNFQPYDSDADWVITGVPFDMATSGRAGGRHGPAAIRQVSTNLAWEHNRFPWNFDMRERLNVVDCGDLVYAFGDAREMSEKLQAHAEKLLAAGKRMLSFGGDHFVTLPLLRAHAKHFGKMALVHFDAHTDTYANGCEFDHGTMFYTAPKEGLIDPNHSVQIGIRTEFDKDNGFTVLDACQVNDRSVDDVIAQVKQIVGDMPVYLTFDIDCLDPAFAPGTGTPVIGGLTSDRAIKLVRGLKDLNIVGMDVVEVAPAYDQSEITALAAATLALEMLYIQAAKKGE
notes: E. coli agmatinase SPEB, UniProt P60651, a 306 residue protein; cloned in pTHT (a pET-28 variant with a TEV protease site in place of the thrombin site); Two Mn2+ ions were modelled in each active site; also called agmatine amidinohydrolase; SPEB-THT (plasmid); source: E. coli BL21(DE3), purified (Ni-NTA, size exclusion chromatography)
Consider B1, for which the “stoichiometry N” value was found to be 6.
